Numbered stars: 1 amine (or outer) side, 2 acyl side, 3 side chain; on linkers, the order of the positions; unused ones are H or OH. Bridge positions count the residues as written; N and C are the ends. Side chains are listed from the residue outwards. Ends that are not written are not given here. * marks the point of attachment. C20 diacid = O=C(O)CCCCCCCCCCCCCCCCCCC(=O)*; γGlu = O=C(O)[C@H](CCC(=O)[*:2])N[*:1]; AEEA = NCCOCCOCC(=O)O

The results in this text go back to patent US20140087995A1 (published 2014).

Test [1] has as its target T1, human calcitonin receptor (human, UniProt P30988 25-474).
T1 construct: whole, on cells; Assay used cell membranes of the transfected BHK cells; also called hCTR; hCT
T1 sequence (looked up): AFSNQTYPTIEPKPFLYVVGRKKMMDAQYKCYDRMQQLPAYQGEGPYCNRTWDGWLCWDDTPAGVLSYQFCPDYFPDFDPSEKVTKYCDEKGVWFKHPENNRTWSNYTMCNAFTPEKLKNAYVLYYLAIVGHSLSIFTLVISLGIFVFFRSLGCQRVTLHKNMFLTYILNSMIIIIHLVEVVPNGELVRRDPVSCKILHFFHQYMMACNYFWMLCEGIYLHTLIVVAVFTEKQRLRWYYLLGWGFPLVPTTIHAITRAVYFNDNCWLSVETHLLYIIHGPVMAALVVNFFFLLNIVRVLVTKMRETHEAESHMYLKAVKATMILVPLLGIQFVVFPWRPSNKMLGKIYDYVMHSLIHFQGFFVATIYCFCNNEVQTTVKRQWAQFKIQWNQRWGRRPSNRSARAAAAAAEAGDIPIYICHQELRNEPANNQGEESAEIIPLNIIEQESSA
The test can be described thus: SPA radioligand competition (125I-calcitonin), membranes of BHK cells with human calcitonin receptor. In outline: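 BHK hCTR membranes 35 ng/μL + SPA beads 0.05 mg/well; buffer 50 mM Hepes pH 7.4, 1 mM CaCl2, 5 mM MgCl₂, 0.1% OA, 0.02% Tween20. 120 min, 25° C., shaking. Scintillation count; IC50 by one-site binding competition.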
For orientation: Loss of bound radioactivity is the signal in a displacement assay; it reports binding, not function.

Test [2] concerns the target T1, human calcitonin receptor. The test is described as follows: ratio IC50 hCTR / IC50 hAmylin-R of the two SPA competition assays; reference: human amylin receptor. How it is done:
The resulting pellet was resuspended, homogenized and centrifuged (20.000 rpm, 15 min) in a buffer containing 20 mM Na-HEPES and 0.1 mM EDTA (pH 7.4, buffer 2). The resulting pellet was resuspended in buffer 2 and protein concentration was measured (BCA protein Assay, Pierce). The homogenate was kept cold during the whole procedure. The membranes were kept at −80° C. until use. The assay was performed in a 384 well Optiplate (PerkinElmer) in a total volume of 40 ul. Membranes were mixed with SPA beads. Final concentration of membranes 35 ng/μL final and SPA beads was 0.05 mg/well. Test-compounds were dissolved in DMSO and further diluted in assay buffer (50 mM Hepes, pH 7.4, 1 mM CaCl2, 5 mM MgCl₂, 0.1% OA and 0.02% Tween20). […] The final mixture was incubated with shaking at 400 rpm for 120 min at 25° C. prior to centrifugation (1500 rpm, 10 min). Samples were analyzed on TopCounter™ (Packard). The IC₅₀ was calculated using (one site binding competition analysis) GraphPad Prism5 as a measure of receptor affinity.
Membranes were prepared in the following way; the cells were rinsed with PBS and incubated with Versene for approximately 5 min before harvesting. The cells were flushed with PBS and the cell-suspension was centrifuged for 5 min at 1000 rpm. Cells were homogenized (Ultrathurrax) in a buffer containing 20 mM Na-HEPES and 10 mM EDTA (pH 7.4) and centrifuged at 20.000 rpm for 15 min. The resulting pellet was resuspended, homogenized and centrifuged (20.000 rpm, 15 min) in a buffer containing 20 mM Na-HEPES and 0.1 mM EDTA (pH 7.4, buffer 2). The resulting pellet was resuspended in buffer 2 and protein concentration was measured (BCA protein Assay, Pierce). The homogenate was kept cold during the whole procedure. The membranes were kept at −80° C. until use. Assay was performed in a 384 well Optiplate (PerkinElmer) in a total volume of 40 ul. Membranes were mixed with SPA beads.

B1: N^ε1-[2-[2-[2-[[2-[2-[2-[[(4S)-4-carboxy-4-(19-carboxynonadecanoylamino)butanoyl]amino]ethoxy]ethoxy]acetyl]amino]ethoxy]ethoxy]acetyl]-[Arg17,Pro21,Pro27,Glu35 … (peptide)
peptide: K([AEEA-AEEA-γGlu-C20 diacid])CNTATCATQRLANFLRHSSPNFGAIPSSTNVGSETY-NH2
modifications: disulfide 2-7; N-terminus assumed
SMILES: CC[C@H](C)[C@H](NC(=O)[C@H](C)NC(=O)CNC(=O)[C@H](Cc1ccccc1)NC(=O)[C@H](CC(N)=O)NC(=O)[C@@H]1CCCN1C(=O)[C@H](CO)NC(=O)[C@H](CO)NC(=O)[C@H](Cc1c[nH]cn1)NC(=O)[C@H](CCCNC(=N)N)NC(=O)[C@H](CC(C)C)NC(=O)[C@H](Cc1ccccc1)NC(=O)[C@H](CC(N)=O)NC(=O)[C@H](C)NC(=O)[C@H](CC(C)C)NC(=O)[C@H](CCCNC(=N)N)NC(=O)[C@H](CCC(N)=O)NC(=O)[C@@H](NC(=O)[C@H](C)NC(=O)[C@@H]1CSSC[C@H](NC(=O)[C@@H](N)CCCCNC(=O)COCCOCCNC(=O)COCCOCCNC(=O)CC[C@H](NC(=O)CCCCCCCCCCCCCCCCCCC(=O)O)C(=O)O)C(=O)N[C@@H](CC(N)=O)C(=O)N[C@@H]([C@@H](C)O)C(=O)N[C@@H](C)C(=O)N[C@@H]([C@@H](C)O)C(=O)N1)[C@@H](C)O)C(=O)N1CCC[C@H]1C(=O)N[C@@H](CO)C(=O)N[C@@H](CO)C(=O)N[C@H](C(=O)N[C@@H](CC(N)=O)C(=O)N[C@H](C(=O)NCC(=O)N[C@@H](CO)C(=O)N[C@@H](CCC(=O)O)C(=O)N[C@H](C(=O)N[C@@H](Cc1ccc(O)cc1)C(N)=O)[C@@H](C)O)C(C)C)[C@@H](C)O
notes: Synthetic analogue; also called compound 25
What is called IC50 is the concentration that inhibits the measured activity by half. As to B1, in test [1], the half-maximal inhibitory concentration (IC50) turned out to be 43.4 nM. Besides, in test [2], the “Ratio hCT/hAmylin binding” value was 56.5.

B2: N^ε1-[(4S)-4-carboxy-4-(19-carboxynonadecanoylamino)butanoyl]-[Arg17,Pro21,Pro27,Lys35]-h-amylin (peptide)
peptide: K([γGlu-C20 diacid])CNTATCATQRLANFLRHSSPNFGAIPSSTNVGSKTY-NH2
modifications: disulfide 2-7; N-terminus assumed
SMILES: CC[C@H](C)[C@H](NC(=O)[C@H](C)NC(=O)CNC(=O)[C@H](Cc1ccccc1)NC(=O)[C@H](CC(N)=O)NC(=O)[C@@H]1CCCN1C(=O)[C@H](CO)NC(=O)[C@H](CO)NC(=O)[C@H](Cc1c[nH]cn1)NC(=O)[C@H](CCCNC(=N)N)NC(=O)[C@H](CC(C)C)NC(=O)[C@H](Cc1ccccc1)NC(=O)[C@H](CC(N)=O)NC(=O)[C@H](C)NC(=O)[C@H](CC(C)C)NC(=O)[C@H](CCCNC(=N)N)NC(=O)[C@H](CCC(N)=O)NC(=O)[C@@H](NC(=O)[C@H](C)NC(=O)[C@@H]1CSSC[C@H](NC(=O)[C@@H](N)CCCCNC(=O)CC[C@H](NC(=O)CCCCCCCCCCCCCCCCCCC(=O)O)C(=O)O)C(=O)N[C@@H](CC(N)=O)C(=O)N[C@@H]([C@@H](C)O)C(=O)N[C@@H](C)C(=O)N[C@@H]([C@@H](C)O)C(=O)N1)[C@@H](C)O)C(=O)N1CCC[C@H]1C(=O)N[C@@H](CO)C(=O)N[C@@H](CO)C(=O)N[C@H](C(=O)N[C@@H](CC(N)=O)C(=O)N[C@H](C(=O)NCC(=O)N[C@@H](CO)C(=O)N[C@@H](CCCCN)C(=O)N[C@H](C(=O)N[C@@H](Cc1ccc(O)cc1)C(N)=O)[C@@H](C)O)C(C)C)[C@@H](C)O
notes: Synthetic analogue; also called compound 35
On to B2, for which the IC50 in test [1] is 48.8 nM. In addition, the “Ratio hCT/hAmylin binding” value in test [2] came out at 50.3.

B3: N^ε1-[2-[2-[2-[[(4S)-4-carboxy-4-(19-carboxynonadecanoylamino)butanoyl]amino]ethoxy]ethoxy]acetyl]-[Arg17,Pro21,Pro27,Glu35]-h-amylin (peptide)
peptide: K([AEEA-γGlu-C20 diacid])CNTATCATQRLANFLRHSSPNFGAIPSSTNVGSETY-NH2
modifications: disulfide 2-7; N-terminus assumed
SMILES: CC[C@H](C)[C@H](NC(=O)[C@H](C)NC(=O)CNC(=O)[C@H](Cc1ccccc1)NC(=O)[C@H](CC(N)=O)NC(=O)[C@@H]1CCCN1C(=O)[C@H](CO)NC(=O)[C@H](CO)NC(=O)[C@H](Cc1c[nH]cn1)NC(=O)[C@H](CCCNC(=N)N)NC(=O)[C@H](CC(C)C)NC(=O)[C@H](Cc1ccccc1)NC(=O)[C@H](CC(N)=O)NC(=O)[C@H](C)NC(=O)[C@H](CC(C)C)NC(=O)[C@H](CCCNC(=N)N)NC(=O)[C@H](CCC(N)=O)NC(=O)[C@@H](NC(=O)[C@H](C)NC(=O)[C@@H]1CSSC[C@H](NC(=O)[C@@H](N)CCCCNC(=O)COCCOCCNC(=O)CC[C@H](NC(=O)CCCCCCCCCCCCCCCCCCC(=O)O)C(=O)O)C(=O)N[C@@H](CC(N)=O)C(=O)N[C@@H]([C@@H](C)O)C(=O)N[C@@H](C)C(=O)N[C@@H]([C@@H](C)O)C(=O)N1)[C@@H](C)O)C(=O)N1CCC[C@H]1C(=O)N[C@@H](CO)C(=O)N[C@@H](CO)C(=O)N[C@H](C(=O)N[C@@H](CC(N)=O)C(=O)N[C@H](C(=O)NCC(=O)N[C@@H](CO)C(=O)N[C@@H](CCC(=O)O)C(=O)N[C@H](C(=O)N[C@@H](Cc1ccc(O)cc1)C(N)=O)[C@@H](C)O)C(C)C)[C@@H](C)O
notes: Synthetic analogue; also called compound 26
For B3, the 50% inhibitory concentration (IC50) in test [1] amounted to 25.3 nM. The “Ratio hCT/hAmylin binding” value in test [2] was found to be 47.5.

B4: N^ε1-[2-[2-[2-[[(4S)-4-carboxy-4-(19-carboxynonadecanoylamino)butanoyl]amino]ethoxy]ethoxy]acetyl]-[Arg17,Pro21,Pro27,Pro31]-h-amylin (peptide)
peptide: K([AEEA-γGlu-C20 diacid])CNTATCATQRLANFLRHSSPNFGAIPSSTPVGSNTY-NH2
modifications: disulfide 2-7; N-terminus assumed
SMILES: CC[C@H](C)[C@H](NC(=O)[C@H](C)NC(=O)CNC(=O)[C@H](Cc1ccccc1)NC(=O)[C@H](CC(N)=O)NC(=O)[C@@H]1CCCN1C(=O)[C@H](CO)NC(=O)[C@H](CO)NC(=O)[C@H](Cc1c[nH]cn1)NC(=O)[C@H](CCCNC(=N)N)NC(=O)[C@H](CC(C)C)NC(=O)[C@H](Cc1ccccc1)NC(=O)[C@H](CC(N)=O)NC(=O)[C@H](C)NC(=O)[C@H](CC(C)C)NC(=O)[C@H](CCCNC(=N)N)NC(=O)[C@H](CCC(N)=O)NC(=O)[C@@H](NC(=O)[C@H](C)NC(=O)[C@@H]1CSSC[C@H](NC(=O)[C@@H](N)CCCCNC(=O)COCCOCCNC(=O)CC[C@H](NC(=O)CCCCCCCCCCCCCCCCCCC(=O)O)C(=O)O)C(=O)N[C@@H](CC(N)=O)C(=O)N[C@@H]([C@@H](C)O)C(=O)N[C@@H](C)C(=O)N[C@@H]([C@@H](C)O)C(=O)N1)[C@@H](C)O)C(=O)N1CCC[C@H]1C(=O)N[C@@H](CO)C(=O)N[C@@H](CO)C(=O)N[C@H](C(=O)N1CCC[C@H]1C(=O)N[C@H](C(=O)NCC(=O)N[C@@H](CO)C(=O)N[C@@H](CC(N)=O)C(=O)N[C@H](C(=O)N[C@@H](Cc1ccc(O)cc1)C(N)=O)[C@@H](C)O)C(C)C)[C@@H](C)O
notes: Synthetic analogue; also called compound 49
Regarding B4, in test [1], the IC50 is 12.9 nM. The “Ratio hCT/hAmylin binding” value in test [2] was 10.8.

B5: N^ε1-[(4S)-4-carboxy-4-(19-carboxynonadecanoylamino)butanoyl]-[Arg17,Pro21,Pro27,Glu35]-h-amylin (peptide)
peptide: K([γGlu-C20 diacid])CNTATCATQRLANFLRHSSPNFGAIPSSTNVGSETY-NH2
modifications: disulfide 2-7; N-terminus assumed
SMILES: CC[C@H](C)[C@H](NC(=O)[C@H](C)NC(=O)CNC(=O)[C@H](Cc1ccccc1)NC(=O)[C@H](CC(N)=O)NC(=O)[C@@H]1CCCN1C(=O)[C@H](CO)NC(=O)[C@H](CO)NC(=O)[C@H](Cc1c[nH]cn1)NC(=O)[C@H](CCCNC(=N)N)NC(=O)[C@H](CC(C)C)NC(=O)[C@H](Cc1ccccc1)NC(=O)[C@H](CC(N)=O)NC(=O)[C@H](C)NC(=O)[C@H](CC(C)C)NC(=O)[C@H](CCCNC(=N)N)NC(=O)[C@H](CCC(N)=O)NC(=O)[C@@H](NC(=O)[C@H](C)NC(=O)[C@@H]1CSSC[C@H](NC(=O)[C@@H](N)CCCCNC(=O)CC[C@H](NC(=O)CCCCCCCCCCCCCCCCCCC(=O)O)C(=O)O)C(=O)N[C@@H](CC(N)=O)C(=O)N[C@@H]([C@@H](C)O)C(=O)N[C@@H](C)C(=O)N[C@@H]([C@@H](C)O)C(=O)N1)[C@@H](C)O)C(=O)N1CCC[C@H]1C(=O)N[C@@H](CO)C(=O)N[C@@H](CO)C(=O)N[C@H](C(=O)N[C@@H](CC(N)=O)C(=O)N[C@H](C(=O)NCC(=O)N[C@@H](CO)C(=O)N[C@@H](CCC(=O)O)C(=O)N[C@H](C(=O)N[C@@H](Cc1ccc(O)cc1)C(N)=O)[C@@H](C)O)C(C)C)[C@@H](C)O
notes: Synthetic analogue; also called compound 27
Regarding B5, the IC50 in test [1] was 34.5 nM. Moreover, the “Ratio hCT/hAmylin binding” value in test [2] turned out to be 41.3.
